In US20240425587A1 (Alector, published 2024):
Positions count from the first letter of the chain named. Names and notes keep the numbering of the source.

Key:
[1] = molecular target: T1, murine PILRB, ectopically expressed on 293 cells (murine, UniProt Q2YFS2 29-224); assay: flow cytometry, 293 cells expressing target
T1 construct: whole, on cells; also called mB
Method: (§1) Briefly, conditioned media containing antibodies were incubated with 293 cells for 30 min at 4° C., washed twice, and then detected with anti-mouse IgG Alexa 647.

[2] = molecular target: T2, human PILRA, G78 variant, ectopically expressed on 293 cells (human, UniProt Q9UKJ1 20-303); assay: flow cytometry, 293 cells expressing target
T2 construct: the cells are labelled G78; also called hA G78 OE; hA
T2 sequence (Q9UKJ1 other isoform, or with tags, fused parts or gaps mutant): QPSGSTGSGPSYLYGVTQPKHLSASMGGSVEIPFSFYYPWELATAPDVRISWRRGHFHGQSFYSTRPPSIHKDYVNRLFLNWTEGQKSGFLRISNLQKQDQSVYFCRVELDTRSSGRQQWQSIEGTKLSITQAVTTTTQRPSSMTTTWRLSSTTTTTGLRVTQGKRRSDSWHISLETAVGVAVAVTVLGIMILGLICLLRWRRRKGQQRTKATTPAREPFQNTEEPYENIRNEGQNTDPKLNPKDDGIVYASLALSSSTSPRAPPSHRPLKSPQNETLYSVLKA
Method: as §1

[3] = molecular target: cynomolgus PILRA, ectopically expressed on 293 cells (cynomolgus monkey); assay: flow cytometry, 293 cells expressing target
Sequence of cynomolgus PILRA, ectopically expressed on 293 cells (cynomolgus monkey) (chain, as listed by the source): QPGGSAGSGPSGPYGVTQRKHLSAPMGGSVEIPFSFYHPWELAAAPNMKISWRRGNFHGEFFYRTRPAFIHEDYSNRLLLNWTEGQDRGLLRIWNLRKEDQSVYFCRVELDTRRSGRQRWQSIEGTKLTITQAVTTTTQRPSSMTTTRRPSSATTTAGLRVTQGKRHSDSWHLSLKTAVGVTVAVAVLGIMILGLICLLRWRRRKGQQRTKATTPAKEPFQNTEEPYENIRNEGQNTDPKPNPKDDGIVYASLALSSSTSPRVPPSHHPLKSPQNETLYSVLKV
Method: as §1

[4] = molecular target: T3, human PILRB, ectopically expressed on 293 cells (human, UniProt Q9UKJ0 20-227); assay: flow cytometry, 293 cells expressing target
T3 construct: also called hB
T3 sequence (Q9UKJ0 20-227): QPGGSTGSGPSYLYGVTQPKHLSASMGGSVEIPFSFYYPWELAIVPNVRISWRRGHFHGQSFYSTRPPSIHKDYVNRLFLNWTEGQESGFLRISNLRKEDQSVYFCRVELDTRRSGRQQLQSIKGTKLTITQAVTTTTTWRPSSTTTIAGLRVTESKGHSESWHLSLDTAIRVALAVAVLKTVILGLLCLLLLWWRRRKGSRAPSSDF
Method: as §1

[5] = molecular target: T4, murine PILRA, ectopically expressed on 293 cells (murine, UniProt Q2YFS3 32-302); assay: flow cytometry, 293 cells expressing target
T4 construct: also called mA
T4 sequence (Q2YFS3 32-302): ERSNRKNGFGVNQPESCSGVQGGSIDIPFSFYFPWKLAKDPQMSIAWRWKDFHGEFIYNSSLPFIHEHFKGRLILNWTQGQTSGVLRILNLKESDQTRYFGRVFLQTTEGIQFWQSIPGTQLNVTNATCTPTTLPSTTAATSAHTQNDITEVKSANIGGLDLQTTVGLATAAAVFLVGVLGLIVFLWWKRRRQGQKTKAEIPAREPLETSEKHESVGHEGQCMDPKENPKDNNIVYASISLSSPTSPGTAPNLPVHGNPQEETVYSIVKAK
Method: as §1

[6] = molecular target: T5, human PILRA, c-term His-Avi tag (human, UniProt Q9UKJ1 20-197, limits assumed); assay: SPR (Biacore), antibody captured, PILRA as analyte
T5 construct: not shown: C-terminal His-Avi tag
T5 sequence (Q9UKJ1 20-197 limits assumed): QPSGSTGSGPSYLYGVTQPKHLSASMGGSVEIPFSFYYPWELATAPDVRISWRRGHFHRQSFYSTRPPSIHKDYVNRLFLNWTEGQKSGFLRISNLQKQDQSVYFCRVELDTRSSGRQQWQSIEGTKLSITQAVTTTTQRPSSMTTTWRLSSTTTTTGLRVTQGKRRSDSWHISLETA
Method: Experiments were performed to determine the kinetics of anti-PILRA antibody binding to human […]. The assay is depicted in FIG. 6. A rabbit anti-PILRA was used as a positive control, and H1 LALAPS was used as a negative control. Human PILRA (human PILRA, c-term His-Avi tag, 0.68 mg/mi) was used as the antigen. The running buffer was HBSTE/0.5% BSA, pH 7.4, and the regeneration solution was 10 mM glycine-HCl (pH 2.1). In the assay, antibodies were captured at 10 μg/ml by immobilized anti-huFc or anti-msFc on a Biacore CM5 chip, and human PILRA flowed at 33, 100, and 300 nM. The surface was regenerated after each analyte, and all curves were double-referenced with buffer injections.

T1 sequence (Q2YFS2 29-224): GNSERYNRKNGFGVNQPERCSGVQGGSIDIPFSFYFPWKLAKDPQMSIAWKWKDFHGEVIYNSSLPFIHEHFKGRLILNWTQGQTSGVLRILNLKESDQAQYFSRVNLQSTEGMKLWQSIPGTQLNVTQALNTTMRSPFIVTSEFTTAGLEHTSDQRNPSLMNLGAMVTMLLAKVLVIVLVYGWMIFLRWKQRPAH

B1: E9 (antibody, V domains shown)
VH: QVQLVQSGAEVKKPGASVKVSCKASGGTFSSYSINWVRQAPGQGLEWMGWINPHSGATKYAERFQGRVTMTRDTSTSTVYMELSSLRSEDTAVYYCASAEEPYDILTGYYGGDAFDIWGQGTMVTVSS
VL: DIQMTQSPSSLSASVGDRVTITCRASQSISKYLNWYQQKPGKAPKLLIYDASNLQAGVPSRFSGSGSGTDFTLTISSLQPEDFATYYCQQANSFPYTFGQGTKLEIK
notes: phage campaign
binding result [1]: no binding | EC50 [2]: 1.2 µg/mL | binding result [3]: no binding | binding result [4]: no binding | binding result [5]: no binding

B2: E11 (antibody, V domains shown)
VH: QVQLVQSGAEVKKPGSSVKVSCKASGGTFSSYDISWVRQAPGQGLEWMGGIIPTFVTPKYAQKFQGRVTITADESTSTAYMELSSLRSEDTAVYYCAREGPKQLEEYYYYYMDVWGKGTTVTVSS
VL: B1 VL with S26T, S28A, K31N, Y32S, N34A, D50A, N53Y, A56S, N92Y, Y96W
notes: phage campaign
binding result [1]: no binding | EC50 [2]: 0.2 µg/mL | binding result [3]: no binding | EC50 [4]: 5.9 µg/mL | binding result [5]: no binding

B3: E6 (antibody, V domains shown)
VH: QVQLVQSGAEVKKPGASVKVSCKASGGTFSSYAISWVRQAPGQGLEWMGWINPNSGGTNFAQKFQGRVTMTRDTSTSTVYMELSSLRSEDTAVYYCARGSGSYPLDYWGRGTLVTVSS
VL: B1 VL with S28D, K31T, Y32W, N34A, N53S, Q55E, A56S, A91T, N92Y, F94A
notes: phage campaign
binding result [1]: no binding | binding result [3]: no binding | binding result [4]: no binding | binding result [5]: no binding

B4: E14 (antibody, V domains shown)
VH: QVQLVQSGAEVKKPGSSVKVSCKASGYTFTNYDINWVRQAPGQGLEWMGGIIPIFGTANYAQKFQGRVTITADESTSTAYMELSSLRSEDTAVYYCTNGVGAGWFDLWGRGTLVTVSS
VL: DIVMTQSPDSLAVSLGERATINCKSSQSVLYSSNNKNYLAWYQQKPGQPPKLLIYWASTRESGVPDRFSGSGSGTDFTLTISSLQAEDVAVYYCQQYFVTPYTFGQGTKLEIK
notes: phage campaign
binding result [1]: no binding | EC50 [2]: 0.4 µg/mL | EC50 [3]: 0.6 µg/mL | binding result [4]: no binding | binding result [5]: no binding

B5: A11 (antibody, V domains shown)
VH: QVQLVQSGAEVKKPGASVKVSCKASGYTFTSYYMHWVRQAPGQGLEWMGWINPNNGDTNYAQKFQGRVTMTRDTSTSTVYMELSSLRSEDTAVYYCARAGYFDWLLDYYGMDVWGQGTTVTVSS
VL: DIVMTQSPLSLPVTPGEPASISCRSSQSLLHSNGYNYLDWYLQKPGQSPQLLIYDASNLETGVPDRFSGSGSGTDFTLKISRVEAEDVGVYYCMQALQTPFGPGTKVDIK
notes: phage campaign; same VH/VL as E17
Kd [6]: 14.4 nM | koff [6]: 0.0014 s⁻¹ | kon [6]: 96000 M⁻¹ s⁻¹ | EC50 [2]: 0.6 µg/mL | EC50 [3]: 10.8 µg/mL | EC50 [4]: 1.1 µg/mL

B6: E19 (antibody, V domains shown)
VH: QVQLVQSGAEVKKPGSSVKVSCKASGYLFSDYAMNWVRQAPGQGLEWVGWIIPNSGGTKFAQTFQGRVTITADESTSTAYMELSSLRSEDTAVYYCAREHGVVPADHYYYGMDVWGQGTTVTVSS
VL: EIVMTQSPATLSVSPGERATLSCRASQSISSSYLAWYQQKPGQAPRLLIYGASTRATGIPARFSGSGSGTEFTLTISSLQSEDFAVYYCQQYGRFPWTFGQGTKVEIK
notes: phage campaign; same VH/VL as A13
Kd [6]: 86.1 nM | koff [6]: 0.009 s⁻¹ | kon [6]: 100000 M⁻¹ s⁻¹

B7: A13 (antibody, V domains shown)
VH: B6 VH
VL: B6 VL
notes: phage campaign; same VH/VL as E19
binding result [1]: no binding | EC50 [2]: 0.8 µg/mL | EC50 [3]: 0.8 µg/mL | EC50 [4]: 6.2 µg/mL | binding result [5]: no binding

B8: E7 (antibody, V domains shown)
VH: EVQLLESGGGLVKPGGSLRLSCAASGFTFSSYWMSWVRQAPGKGLEWVSAISGSGGSTYYADSVKGRFTISRDDSKNTLYLQMNSLKTEDTAVYYCARHEEVTMVRGVIFAGGITNWGQGTTVTVSS
VL: B6 VL with Q27E, I29V, S30T, R94S, F95S, W97L, Q101G
notes: phage campaign
binding result [1]: no binding | binding result [3]: no binding | binding result [4]: no binding | binding result [5]: no binding

B9: E16 (antibody, V domains shown)
VH: QVQLKESGPGLVAPSQSLSITCTVSGFSLSGYGVNWVRHLPGKGLEWLGMIWGDGHTDYNSALKSRLSISKDNSKSQVFLKMNSLQTDDTARYYCARDPRFYYGSGPYWYFDVWGAGTTVTVSS
VL: DIVMTQSQKFMSTSVGDRVNITCKASQNVGTAVAWYQQKPGQSPKLLIYSASNRYTGVPDRFTGSGSGTDFTLTISNMQSEDLADYFCQQYSSYPLTFAVGTKLELK
notes: B-cell cloning campaign (mice)
binding result [1]: no binding | EC50 [4]: 3.1 µg/mL | binding result [5]: no binding

B10: E8 (antibody, V domains shown)
VH: QVQLVQSGAEVKKPGASVKVSCKASGYAFTNYDINWVRQAPGQGLEWLGWINPYSGDTNYAQKLQGRVTMTRDTSTSTVYMELSSLRSEDTAVYYCTIPSSYGEYYYYYMDVWGKGTTVTVSS
VL: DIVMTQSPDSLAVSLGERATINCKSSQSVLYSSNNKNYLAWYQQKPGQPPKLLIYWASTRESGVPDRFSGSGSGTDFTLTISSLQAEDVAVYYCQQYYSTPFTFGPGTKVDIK
notes: phage campaign
binding result [1]: no binding | EC50 [2]: 0.4 µg/mL | binding result [3]: no binding | EC50 [4]: 2.9 µg/mL | binding result [5]: no binding

B11: E2 (antibody, V domains shown)
VH: EVQLQESGPSLVKPSQTLSLTCSVTGDSITSGYWNWIRKFPGDKLEYMGYISYTGTTYYNPSLKSRVSITRDTSKNQYYLQLHSVTTEDTATYYCARYPYGNFPFDYWGQGTTLTVSS
VL: SIVMTQTPKFLLVSAGDRVTITCKASQSVRNDVAWYQQRPGQSPKLLIFYASSRYIGAPDRFTGSGYGTDFTFTISTVQAEDLAVYFCQQDYSSPYTFGGGTTLEIK
notes: second hybridoma campaign
binding result [1]: no binding | EC50 [2]: 0.4 µg/mL | EC50 [3]: 92 µg/mL | EC50 [4]: 2.9 µg/mL | binding result [5]: no binding

B12: E1 (antibody, V domains shown)
VH: EVQLVESGGGLVQPGESLKLSCESNEYEFPSHDMSWVRKTPEKRLELVAAINSDGGSTYYPDTMERRFIISRDNTKKTLYLQMSSLRSEDTALYYCARQLMGTGAMDYWGQGTSVTVSS
VL: DIQMTQSSSYLSVSLGGRVTITCKASDHINNWLAWYQQKPGNAPRLLISGATSLETGVPSRFSGSGSGKDYTLSITSLQTEDVATYYCQQYWSTPYTFGGGTKLEIK
notes: second hybridoma campaign
binding result [1]: no binding | EC50 [2]: 40.4 µg/mL | binding result [3]: no binding | binding result [4]: no binding | binding result [5]: no binding

B13: E3 (antibody, V domains shown)
VH: QAYLQQSGAELVRSGASVKMSCKASGNTFTYYNLHWIRQTPGQGLEWIGYIFPGNGDAYYNQNFKGKATLTADTSSSTAYMQISSLTFEDSAVYFCARSPHYYGSGFDYWGQGTPLTVSS
VL: B12 VL with R18G, Y96W
notes: second hybridoma campaign
binding result [1]: no binding | EC50 [2]: 0.22 µg/mL | EC50 [3]: 0.15 µg/mL | EC50 [4]: 0.78 µg/mL | binding result [5]: no binding
